Test results published in the nanobody polyreactivity screen of Harvey et al. (2022).

Assay: yeast display, Sf9 membrane polyspecificity reagent, FACS + sequencing; frameworks hold sequencing errors
Procedure, shortened: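 Galactose-induced (36–48 hours) yeast carrying a synthetic nanobody display library were exposed to 10% biotinylated, detergent-solubilized Sf9 membrane reagent at 4 °C for 1 hour. FACS followed streptavidin microbead enrichment, using low and high (top ~1%) gates for expression (anti-HA) and reagent binding (streptavidin). Colony PCR, MiSeq 2 × 250 sequencing and CDR-length filtering followed. Labels for polyreactivity reflect the gate of origin.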
For “QVQLVESGGGLVQAGGSLRLSCAASGIIFIRYAMGWYRQAPGKERELVAAISWRGGSTYYADSVKGRFTISRDNAKNTVYFQMNSLKPEDTAVYYCAAGYFSYRRYDYWGEGTQVTVSS”, the “polyreactivity (PSR sort gate)” value was “high polyreactivity”.
For “QVQLVESGGGLVQAGGSLRLSCAASGIIFIWNTMGWYRQAPGKEREFVAAISRSGSGTSYADSVKGRFTISRDNAKNTVYLQMNSLKPEDTAVYYWDARLEWPYDMYYWGQGTQVTVSS”, the “polyreactivity (PSR sort gate)” value was “low polyreactivity”.
With “QVQLVESGGGLVQAGGSLRLSCAASGIIFIYYVMGWYRQAPGKERELVAAISRSGGSTYYADSVKGRFTISRDNAKNTVNLQMNSLKPEDTAVYYCAARRITSTDEYYWGQGTQVTVSS” the “polyreactivity (PSR sort gate)” value was “high polyreactivity”.
With “QVQLVESGGGLVQAGGSLRLSCAASGIIFKLYAMGWYRQAPGKEREFVATITKTCGRTYYADSVKGRFTISRDNAKNTVYLQMNSLKPEDTAVYYCAARRVNGKMYYWGQGTQVTVSS” the “polyreactivity (PSR sort gate)” value was “high polyreactivity”.
For “QVQLVESGGGLVQAGGSLRLSCAASGIIFKSYTMGWYRQAPGKERELVAAINSSGDRTYYADSVKGRFTISRDNAKNTVYLQMNSLKPEDTAVYYCAAAPVKKSRFRYDYWGQGTQVTVSS”, the “polyreactivity (PSR sort gate)” value was “high polyreactivity”.
With “QVQLVESGGGLVQAGGSLRLSCAASGIIFKVNVMGWYRQAPGKERELVAAISWSGGSTYYADSVKGRFTISRDNAKNTFYLQMNILKPEDTAVYYCAAYSYVYGERYYFWGQGTQLTVSS” the “polyreactivity (PSR sort gate)” value was “high polyreactivity”.
With “QVQLVESGGGLVQAGGSLRLSCAASGIIFLRNTMGWNRQAPGKERELVASISRRGGSTYYADSVKGRFTISRDNAKNTVYFQLNSLNPEDTAVYYCAATVRGKRSTYDYWGQGTQVTVSS” the “polyreactivity (PSR sort gate)” value was “high polyreactivity”.
With “QVQLVESGGGLVQAGGSLRLSCAASGIIFLSYAIGWYRQAPGKERELFAAISSGVSTYSADSVKGRFTISRDNAKNPVYFQMNSLKPEDTAVYFCAAYYLWPGYQFRPYDYWGQGTQVTVSS” the “polyreactivity (PSR sort gate)” value was “low polyreactivity”.
With “QVQLVESGGGLVQAGGSLRLSCAASGIIFLSYAMGWYRQAPGKERELVAAIRSRGDSTYYADSVKGRFTISRDNAKNTVYLQMNSLKAEDTAVYYCNARQRRYPYGYWGQGTQVTVSS” the “polyreactivity (PSR sort gate)” value was “high polyreactivity”.
For “QVQLVESGGGLVQAGGSLRLSCAASGIIFLYYAMGWYRQAPGKERELVAAISRSGGRTFYADSVKGRFTISRDNAKNTVFLQMNSLKAEDTAVYYCAADALIYYKGSPDYYWGQGTQVTVSS”, the “polyreactivity (PSR sort gate)” value was “high polyreactivity”.
With “QVQLVESGGGLVQAGGSLRLSCAASGIIFNSYAMGWYRQAPGKERELVAAISRSGTSTYYADSVKGRFTISRDNAKNTVYLQMNSLKPEDTAVYYCNVARGYYSYSSRIDYYWGQGTQVTVSS” the “polyreactivity (PSR sort gate)” value was “high polyreactivity”.
For “QVQLVESGGGLVQAGGSLRLSCAASGIIFNTYVMGWYRQAPGKERELVAAISRRGGSTYYADSVKGRFTISRDNAKNTVYLQMNSLKPEDTAVYYCAADVLYQQAGSYYWGQGTQVTVSS”, the “polyreactivity (PSR sort gate)” value was “high polyreactivity”.
For “QVQLVESGGGLVQAGGSLRLSCAASGIIFNYYAMGWYRQAPGKERELVAAIRISDTTYYADSVKGRFTISRDNAKNTVYLQMNSLKPEDTAVYYCNTLYYYYYGEVYVRDYDYWGQGTQVTVSS”, the “polyreactivity (PSR sort gate)” value was “low polyreactivity”.
In the case of “QVQLVESGGGLVQAGGSLRLSCAASGIIFNYYTMGWYRQAPGKERELVAVISWRGGSTFYADSVKGRFTISRDNAKNTVYLQMNSLKPEDTAVYYCAAVLFGDYPPVYYPTEYDYWGQGTQVTVSS”, the “polyreactivity (PSR sort gate)” value is reported as “low polyreactivity”.
For “QVQLVESGGGLVQAGGSLRLSCAASGIIFPHYAMGWYRQEPGKERELVAAITRSGGSTYYADSVKGRFTISRDNAKNTVYLQMNSLKPEDTAVYYCAAKRPVQSGGYNYWGQGTQVTVSS”, the “polyreactivity (PSR sort gate)” value was “high polyreactivity”.
In the case of “QVQLVESGGGLVQAGGSLRLSCAASGIIFPLYMGWDRQAPGTERVLVAAINSIGGRTYYADSVKGRFTISRDNAKNTVYLQMNSLKPEDTAVYYCNAVPVGWRYRQYDYWGQGTQVTVSS”, the “polyreactivity (PSR sort gate)” value is reported as “high polyreactivity”.
In the case of “QVQLVESGGGLVQAGGSLRLSCAASGIIFPRYAMGWYRQAPGKERELVAAITIGGRTNYSDSVKGRFTISRDNAKNTVYLQMNSLKPEDTAVYYCAAQTYVPYYEYDYWGQGTQVTVSS”, the “polyreactivity (PSR sort gate)” value is reported as “low polyreactivity”.
In the case of “QVQLVESGGGLVQAGGSLRLSCAASGIIFPRYMGWYRQEPGKERELVAAIRWSSDDTNYADSVKGRFTISRDNAKNTVYLQMNSLKPEDSAVYYCAKDSLYGVPFDVDYWGQGTQVTVSS”, the “polyreactivity (PSR sort gate)” value is reported as “low polyreactivity”.
For “QVQLVESGGGLVQAGGSLRLSCAASGIIFPTYAMGWYRQAPGKERELVAAITSGGSTYYADSVKGRFTISRDNAKNTVYLQMNSLKPEDTAVYYCAAAYLGYGAVQPSYEGGYWGQGTQVTVSS”, the “polyreactivity (PSR sort gate)” value was “low polyreactivity”.
In the case of “QVQLVESGGGLVQAGGSLRLSCAASGIIFPTYDMGWYRQAPGKERELVAAITWSTGSTTYADSVKGRFTISRDNAKNTVYLQMNSQKPEDTAVYYCNKDSEGSGGEFDYWGQGTQVTVSS”, the “polyreactivity (PSR sort gate)” value is reported as “low polyreactivity”.
For “QVQLVESGGGLVQAGGSLRLSCAASGIIFPVYAMGWYRQAPGKERELVATIDSGGGTYYADSVKGRFTISRDNAKNTVYLQMNSLKPEDTAVYYCAADLWVGLVSLWDGYVEYDYWGQGTQVTVSS”, the “polyreactivity (PSR sort gate)” value was “low polyreactivity”.
With “QVQLVESGGGLVQAGGSLRLSCAASGIIFPYYAMGWYRPAPGKERELVAASTGRGTSTYADSVKGRFTISRDNAKNTVYLQMNSRKPEDTAVYYCAAVGWFADFLFSDINGYYWGQGTQVTVSS” the “polyreactivity (PSR sort gate)” value was “low polyreactivity”.
With “QVQLVESGGGLVQAGGSLRLSCAASGIIFPYYAMGWYRQAPGKERELVAGISSSGGITYADSVKGRFTISRDNAKNTVYLQMNSLKPEDTAVYYCAARYPARGTLYYWGQGTQVTVSS” the “polyreactivity (PSR sort gate)” value was “low polyreactivity”.
In the case of “QVQLVESGGGLVQAGGSLRLSCAASGIIFPYYAMGWYRQAPGKERELVAGISWSGGSTYYADSVKGRFTISRDNAKNTVYLQMNSLKPEDTAVYYCAADYPATPDDDYWGQGTQVTVSS”, the “polyreactivity (PSR sort gate)” value is reported as “high polyreactivity”.
For “QVQLVESGGGLVQAGGSLRLSCAASGIIFQAYAMGWYRQAPGKERELVAAISYSGGSTYYADSVKGRFTISRDNAKNTVYLQMNSLKPEDTAVYYCAATFYGYFDSVFSWGYYYWGQGTQVTVSS”, the “polyreactivity (PSR sort gate)” value was “low polyreactivity”.
With “QVQLVESGGGLVQAGGSLRLSCAASGIIFQAYDMGWYRQAPGKERELVAAISYSGGSTYYADSVKGRFTISRDNAKNTVYLQMNSQKPEDTAVYYCAATFYGYFDSVFSWGYYYCGQGTQVTVSS” the “polyreactivity (PSR sort gate)” value was “low polyreactivity”.
In the case of “QVQLVESGGGLVQAGGSLRLSCAASGIIFQFYAMGWYRQAPGKERELVAAISRSGGITHYADSVKGRFTISRDTAQNTVYLQMNSLKPEDTAVYYCAAVRQAYPRLDYWGQGTQVTVSS”, the “polyreactivity (PSR sort gate)” value is reported as “high polyreactivity”.
With “QVQLVESGGGLVQAGGSLRLSCAASGIIFQFYAMVWYRQAPGKERELVAAISRSGGITHYADSVKGRFTISRDNAKNTVYLQMNILKPEDTAVYYCATRGTRSYFRTFYYWGQGTQVTVSS” the “polyreactivity (PSR sort gate)” value was “high polyreactivity”.
In the case of “QVQLVESGGGLVQAGGSLRLSCAASGIIFQGNAMGWYRQAPGKERELVAVITSRGGSTYYADSVKGRFTISRDNAKNTVYLQMNSLLPEDTAVYYCAKAKRYPQYYYWGQGTQVTVSS”, the “polyreactivity (PSR sort gate)” value is reported as “high polyreactivity”.
In the case of “QVQLVESGGGLVQAGGSLRLSCAASGIIFQNYDMGWYRQAPGKERELVAAITSGVSTYYADSVKGRFTIARYNAKNTVYLQMNSLKPEDTAVYYCAVVGGFRWIRMEYWGQGTQVTVSS”, the “polyreactivity (PSR sort gate)” value is reported as “low polyreactivity”.
With “QVQLVESGGGLVQAGGSLRLSCAASGIIFQRNDMGWYRQAPGKEREFVAAITYIGGSTYYADSVKGRFTISRDNAKNTVYLQMNSLKPEDTAVYWGQGTQVTVSS” the “polyreactivity (PSR sort gate)” value was “low polyreactivity”.
With “QVQLVESGGGLVQAGGSLRLSCAASGIIFQTYAMGWYRQAPGKERELVAAISRTGGSTYYADSVKGRFTISRDNAKITVYVQMHSLKPEDTAVYSCAAPRFAAPLRIGYVWGQVTQVTVSS” the “polyreactivity (PSR sort gate)” value was “high polyreactivity”.
With “QVQLVESGGGLVQAGGSLRLSCAASGIIFQYYAMGGYRQAPGKERELVAAISWSGGSTYYADSVKGRFTISRDNAKNTVYLQMNSLKPEDTAVYYCAARSRSFWPYEGDYWGQGTQVTVSS” the “polyreactivity (PSR sort gate)” value was “low polyreactivity”.
For “QVQLVESGGGLVQAGGSLRLSCAASGIIFRANAMGWYRQAPGKERELDAAISGRGSSTTYADSVKGRFTISRDNAKNTVYLQINSLKPEDTAVYYCAARLPYNNQVPGYYWGQGTQVTGSS”, the “polyreactivity (PSR sort gate)” value was “high polyreactivity”.
For “QVQLVESGGGLVQAGGSLRLSCAASGIIFRANAMGWYRQAPGKERELVAAISGRGSSTTYADSVKGRFTISRDNAKNTVYLQMNSLKPEDTAVYYCAAAGWSARGYNYWGQGTQVTVSS”, the “polyreactivity (PSR sort gate)” value was “high polyreactivity”.
For “QVQLVESGGGLVQAGGSLRLSCAASGIIFRANAMGWYRQAPGKERELVAAISGRGSSTTYADSVKGRFTISRDNAKNTVYLQMNSLKPEDTAVYYCAADTWYPGYYAYDYWGQGTQVTVSS”, the “polyreactivity (PSR sort gate)” value was “high polyreactivity”.
For “QVQLVESGGGLVQAGGSLRLSCAASGIIFRAYAMGWYRPAPGKERELVAAISRSGGSTYYADSVKGRFTISRDNAKNTVYLQMNSLKQEDTAVYYCAADTVWYLYYYWGQGSQVTVSS”, the “polyreactivity (PSR sort gate)” value was “high polyreactivity”.
In the case of “QVQLVESGGGLVQAGGSLRLSCAASGIIFRFYSMGWYRQAPGKERELLAVITSRSDSTYYADSVKGRFTISRDNAKNTVYLQMNSLKPEDTAVYYCNARYPWYYRYSTYDYWGQGTQVTVSS”, the “polyreactivity (PSR sort gate)” value is reported as “high polyreactivity”.
For “QVQLVESGGGLVQAGGSLRLSCAASGIIFRGNVMGWYRQAPGKERELVAAISGSGGRTYYADSVKGRFTISRDNAKNTVYLQMNSLKPEVTAVYYCNADKAIRYDYWGQGPQVTVSS”, the “polyreactivity (PSR sort gate)” value was “high polyreactivity”.
With “QVQLVESGGGLVQAGGSLRLSCAASGIIFRKNAMGWYRQAPGKERELVAAISSTGASTNYADSVKGRFTISRDNAKNTVYLQMNSLKPEDTAVYYCAASRTRYWKYDYWGQGTQVTVSS” the “polyreactivity (PSR sort gate)” value was “high polyreactivity”.
With “QVQLVESGGGLVQAGGSLRLSCAASGIIFRNNAMGWYRQAPGKEREFVARISKRGGSTYYADSVKGRFTISRDNAKNTVYLQQNSLKPEDTAVYYCAKGYGSGSYLYDYWGQGTQVTVSS” the “polyreactivity (PSR sort gate)” value was “high polyreactivity”.
